The values below come from patent US20230105029A1 (CHIA TAI TIANQING PHARMACEUTICAL GROUP, published 2023).

Assay [1] deals with T1, recombinant human IL4Rα-his protein (in house made) (human, UniProt P24394 26-232, limits assumed).
T1 construct: also called Human IL4Ra-his
Put plainly: SPR (Biacore), antibody captured, IL4Rα-his flowed.

In assay [2] the target is T1, recombinant human IL4Rα-his protein (in …). The assay can be described thus: SPR (Biacore), antibody captured, IL4Rα-his flowed. This is another data set of the same source. For orientation: SPR reads the build-up and loss of mass on a sensor chip optically.

Changes are numbered by the printed parent chain. Where two headings read alike, the source gives them in different places.

B1: huC2C1A1A1-V4 (antibody, human IgG4 S228P, kappa, V domains shown)
VH: EVQLVESGGGLVQPGGSLRLSCAASGFTFSTYGMSWVRQAPGKGLVWVSTINSNGGSTSYPDSVKGRFTISRDNAKNTLYLQMNSLRAEDTAVYYCARFFRFRNAMDYWGQGTLVTVSS
VL: DIQMTQSPSSLSASVGDRVTITCRTSENIYSYLAWYQQKPGKAPKFLIYNAKTLAEGVPSRFSGSGSGTDFTLTISSLQPEDFATYYCQHYYGPPTWTFGQGTKVEIKR
notes: Humanized, human IgG4/kappa
The term Kd denotes the constant that tells how readily two partners part at equilibrium. Broadly, the koff is a measure of how fast the partners let go of each other. As usually defined, the kon is the rate constant with which the complex forms. Take B1: in assay [1], the Dissociation % was 0.2%, the “End (RU)” value amounted to 49.6 RU, the Kd was less than 0.022 nM and the “Start (RU)” value was determined as 49.5 RU. Further, in assay [1], the koff was less than 1e-05 s⁻¹ and the on-rate (kon) is 455000 M⁻¹ s⁻¹.

B2: huC2C1A1A1-V6 (antibody, human IgG4 S228P, kappa, V domains shown)
VH: B1 VH with A40S, G42D, G44R, V46E, N84R
VL: DIQMTQSPSSLSASVGQRVTITCRTSENIYSYLAWYQQKQGKPPRFLIYNAKTLAEGVPSRFSGSGSGTEFTLTITSLQAEDFGVYYCQHYYGPPTWTFGPGTKLEIKR
notes: Humanized, human IgG4/kappa
For the molecule B2, in assay [1], the Dissociation % was -0.59%, the “End (RU)” value turned out to be 50.6 RU, the Kd is less than 0.0261 nM and the “Start (RU)” value came to 50.9 RU. Besides, in assay [1], the koff is less than 1e-05 s⁻¹ and the on-rate constant (kon) came out at 383000 M⁻¹ s⁻¹.

B3: huC2C1A1A1-V10 (antibody, human IgG4 S228P, kappa, V domains shown)
VH: B1 VH with W47L, S49A
VL: B2 VL
notes: Humanized, human IgG4/kappa
As to B3, in assay [1], the Dissociation % was -1.54%, the “End (RU)” value turned out to be 63.9 RU, the Kd was less than 0.0304 nM and the “Start (RU)” value came to 64.9 RU. For the same molecule, in assay [1], the off-rate (koff) is less than 1e-05 s⁻¹ and the kon was 329000 M⁻¹ s⁻¹.

B4: huC2C1A1A1-V1 (antibody, human IgG4 S228P, kappa, V domains shown)
VH: B1 VH
VL: B1 VL with F46L
notes: Humanized, human IgG4/kappa
Take B4: in assay [1], the Dissociation % came to 0.23%, the “End (RU)” value stood at 44 RU, the Kd is less than 0.0773 nM and the “Start (RU)” value stood at 43.9 RU. In assay [1], the koff is less than 1e-05 s⁻¹ and the kon was found to be 129000 M⁻¹ s⁻¹.

B5: huC2C1A1A1-V9 (antibody, human IgG4 S228P, kappa, V domains shown)
VH: B1 VH with W47L, S49A
VL: B1 VL with F46L
notes: Humanized, human IgG4/kappa
With B5, in assay [1], the Dissociation % was -0.24%, the “End (RU)” value amounted to 41.1 RU, the equilibrium dissociation constant (Kd) is less than 0.0507 nM and the “Start (RU)” value stood at 41.2 RU. For the same molecule, in assay [1], the off-rate (koff) was less than 1e-05 s⁻¹ and the kon came to 197000 M⁻¹ s⁻¹.

B6: huC2C1A1A1-V7 (antibody, human IgG4, V domains shown)
VH: B1 VH with A40S, G42D, G44R, V46E, N84R
VL: B1 VL with I48V
notes: Humanized, human IgG4/kappa
As for B6, in assay [1], the Dissociation % is -0.66%, the “End (RU)” value came to 60.1 RU, the Kd is less than 0.038 nM and the “Start (RU)” value came out at 60.5 RU. Further, in assay [1], the koff was less than 1e-05 s⁻¹ and the on-rate constant (kon) turned out to be 263000 M⁻¹ s⁻¹.

B7: huC2C1A1A1-V5 (antibody, human IgG4 S228P, kappa, V domains shown)
VH: B1 VH with A40S, G42D, G44R, V46E, N84R
VL: B1 VL with F46L
notes: Humanized, human IgG4/kappa
As to B7, in assay [1], the Dissociation % is -2.28%, the “End (RU)” value is 64.3 RU, the Kd turned out to be 0.0283 nM and the “Start (RU)” value was determined as 65.8 RU. In addition, in assay [1], the koff came out at 7.5e-05 s⁻¹ and the kon was found to be 2.65e+06 M⁻¹ s⁻¹.

B8: huC2C1A1A1-V8 (antibody, human IgG4 S228P, kappa, V domains shown)
VH: B1 VH with A40S, G42D, G44R, V46E, N84R
VL: B1 VL
notes: Humanized, human IgG4/kappa
B8: in assay [1], the Dissociation % was -1.23%, the “End (RU)” value came to 64.4 RU, the Kd is less than 0.036 nM and the “Start (RU)” value is 65.2 RU. In addition, in assay [1], the koff was less than 1e-05 s⁻¹ and the kon turned out to be 278000 M⁻¹ s⁻¹.

B9: huC2C1A1A1-V11 (antibody, human IgG4, V domains shown)
VH: B1 VH with W47L, S49A
VL: B1 VL with I48V
notes: Humanized, human IgG4/kappa
Regarding B9, in assay [1], the Dissociation % was -0.92%, the “End (RU)” value is 53.7 RU, the Kd was less than 0.0303 nM and the “Start (RU)” value is 54.2 RU. In assay [1], the koff was less than 1e-05 s⁻¹ and the association rate constant (kon) came to 330000 M⁻¹ s⁻¹.

B10: huC2C1A1A1-V13 (antibody, human IgG4 S228P, kappa, V domains shown)
VH: B1 VH with S49A
VL: B1 VL with F46L
notes: Humanized, human IgG4/kappa
Turning to B10, in assay [1], the Dissociation % was 0.82%, the “End (RU)” value was 36.7 RU, the Kd is less than 0.0838 nM and the “Start (RU)” value was found to be 36.4 RU. Further, in assay [1], the off-rate (koff) is less than 1e-05 s⁻¹ and the kon came out at 119000 M⁻¹ s⁻¹.

B11: huC2C1A1A1-V12 (antibody, human IgG4 S228P, kappa, V domains shown)
VH: B1 VH with W47L, S49A
VL: B1 VL
notes: Humanized, human IgG4/kappa
Consider B11, for which, in assay [1], the Dissociation % is -1.88%, the “End (RU)” value was 52.1 RU, the dissociation constant (Kd) amounted to 0.047 nM and the “Start (RU)” value is 53.1 RU. In assay [1], the off-rate constant (koff) turned out to be 1.42e-05 s⁻¹ and the kon was determined as 302000 M⁻¹ s⁻¹.

B12: huC2C1A1A1-V2 (antibody, human IgG4 S228P, kappa, V domains shown)
VH: B1 VH
VL: B2 VL
notes: Humanized, human IgG4/kappa
In the case of B12, in assay [1], the Dissociation % was -0.2%, the “End (RU)” value came out at 50.3 RU, the Kd is less than 0.0442 nM and the “Start (RU)” value is 50.4 RU. In assay [1], the koff is less than 1e-05 s⁻¹ and the on-rate constant (kon) was 226000 M⁻¹ s⁻¹.

B13: huC2C1A1A1-V16 (antibody, human IgG4 S228P, kappa, V domains shown)
VH: B1 VH with S49A
VL: B1 VL
notes: Humanized, human IgG4/kappa
On to B13, for which, in assay [1], the Dissociation % was -0.42%, the “End (RU)” value is 47.1 RU, the dissociation constant Kd was less than 0.0338 nM and the “Start (RU)” value stood at 47.3 RU. Besides, in assay [1], the koff is less than 1e-05 s⁻¹ and the on-rate constant (kon) is 296000 M⁻¹ s⁻¹.

B14: huC2C1A1A1-V3 (antibody, human IgG4, V domains shown)
VH: B1 VH
VL: B1 VL with I48V
notes: Humanized, human IgG4/kappa
B14: in assay [1], the Dissociation % was -0.62%, the “End (RU)” value worked out at 48.3 RU, the Kd was less than 0.0389 nM and the “Start (RU)” value came to 48.6 RU. In assay [1], the koff is less than 1e-05 s⁻¹ and the kon is 257000 M⁻¹ s⁻¹.

B15: huB8G11F2B7G5E8-V1 (antibody, human IgG4 S228P, kappa, V domains shown)
VH: EVQLVQSGAEVKKPGATVKISCKASGFNIKDTYMHWVKQAPGKGLEWVGRIDPTNGYTIYASKFQGKATITADTSSNTAYMELSSLRSEDTAVYHCVSRRPWFAYWGQGTLVTVSS
VL: DIVMTQTPLSLSVTPGQPASISCRSSQSIVHSNGNTYLEWYLQKPGQSPQLLIYKVTNRFSGVPDRFSGSGSGTDFTLKISRVEAEDVGVYYCFQGSHVPYTFGQGTKLEIKR
notes: Humanized, human IgG4/kappa; also called huBSG11F2B7G5E8-V1
As to B15, in assay [2], the Kd stood at 3.73 nM, the koff is 0.00208 s⁻¹ and the kon was 557000 M⁻¹ s⁻¹.

B16: huB8G11F2B7G5E8-V13 (antibody, human IgG4 S228P, kappa, V domains shown)
VH: QVQLQQSGAELVKPGASVKLSCTASGFNIKDTYMHWVKQRPEQGLEWVGRIDPTNGYTIYASKFQGKATITADTSSNTAYMQLSSLTSEDTAVYHCVSRRPWFAYWGQGTTLTVSS
VL: B15 VL
notes: Humanized, human IgG4/kappa; also called huBSG11F2B7G5E8-V13
As to B16, in assay [2], the Kd amounted to 3.87 nM, the koff came to 0.0012 s⁻¹ and the kon turned out to be 310000 M⁻¹ s⁻¹.

B17: huB8G11F2B7G5E8-V11 (antibody, human IgG4 S228P, kappa, V domains shown)
VH: B15 VH with A24V, K38Q, V48M, R50L, S62E, K67R, A68V, S76T, N77D, H95Y
VL: B15 VL
notes: Humanized, human IgG4/kappa; also called huBSG11F2B7G5E8-V11
In the case of B17, the Kd in assay [2] stood at 14.9 nM.

B18: huB8G11F2B7G5E8-V5 (antibody, human IgG4 S228P, kappa, V domains shown)
VH: B15 VH with K67R
VL: B15 VL
notes: Humanized, human IgG4/kappa; also called huBSG11F2B7G5E8-V5
In the case of B18, in assay [2], the Kd worked out at 4.13 nM, the dissociation rate constant (koff) is 0.00241 s⁻¹ and the on-rate (kon) is 584000 M⁻¹ s⁻¹.

B19: huB8G11F2B7G5E8-V9 (antibody, human IgG4 S228P, kappa, V domains shown)
VH: B15 VH with H95Y
VL: B15 VL
notes: Humanized, human IgG4/kappa; also called huBSG11F2B7G5E8-V9
For B19, in assay [2], the equilibrium dissociation constant (Kd) worked out at 5.32 nM, the off-rate constant (koff) was 0.00331 s⁻¹ and the on-rate (kon) stood at 621000 M⁻¹ s⁻¹.

B20: huB8G11F2B7G5E8-V7 (antibody, human IgG4 S228P, kappa, V domains shown)
VH: B15 VH with S76T
VL: B15 VL
notes: Humanized, human IgG4/kappa; also called huBSG11F2B7G5E8-V7
B20: in assay [2], the dissociation constant (Kd) worked out at 3.75 nM, the dissociation rate constant (koff) is 0.00222 s⁻¹ and the kon was determined as 592000 M⁻¹ s⁻¹.

B21: huB8G11F2B7G5E8-V3 (antibody, human IgG4 S228P, kappa, V domains shown)
VH: B15 VH with K38Q
VL: B15 VL
notes: Humanized, human IgG4/kappa; also called huBSG11F2B7G5E8-V3
As to B21, in assay [2], the Kd turned out to be 3.57 nM, the koff came out at 0.00199 s⁻¹ and the kon was determined as 558000 M⁻¹ s⁻¹.

B22: huB8G11F2B7G5E8-V10 (antibody, human IgG4 S228P, kappa, V domains shown)
VH: B15 VH with K67R, A68V, S76T
VL: B15 VL
notes: Humanized, human IgG4/kappa; also called huBSG11F2B7G5E8-V10
Turning to B22, in assay [2], the dissociation constant (Kd) was 4.79 nM, the dissociation rate constant (koff) was 0.0028 s⁻¹ and the kon was 585000 M⁻¹ s⁻¹.

B23: huB8G11F2B7G5E8-V8 (antibody, human IgG4 S228P, kappa, V domains shown)
VH: B15 VH with N77D
VL: B15 VL
notes: Humanized, human IgG4/kappa; also called huBSG11F2B7G5E8-V8
B23: in assay [2], the Kd amounted to 4.89 nM, the koff was 0.00283 s⁻¹ and the on-rate (kon) worked out at 578000 M⁻¹ s⁻¹.

B24: huB8G11F2B7G5E8-V6 (antibody, human IgG4 S228P, kappa, V domains shown)
VH: B15 VH with A68V
VL: B15 VL
notes: Humanized, human IgG4/kappa; also called huBSG11F2B7G5E8-V6
On to B24, for which, in assay [2], the Kd worked out at 3.95 nM, the off-rate constant (koff) turned out to be 0.00219 s⁻¹ and the kon is 554000 M⁻¹ s⁻¹.
